In patent publication US5641629, “Spectroscopically detectable nucleic acid ligands”:

Assays:
serum albumin (HSA) [1] = target: T1, serum albumin (HSA) (Homo sapiens, UniProt P02768 P02768:25-609); test: FP; HSA up to 660 nM; settings: tags: Sigma; label: 5'-thiazole orange (C3 linker)
Description: (§1) The fluorescence polarization of the reaction mixtures was measured directly using 12×75 mm borosilicate glass test tubes. The maximum change in fluorescence polarization was reported as ΔmP (millipolarization units). As reported below in Table 1, the data represent the average of three readings at ambient temperature.

alpha-thrombin [2] = target: T2, alpha-thrombin (Homo sapiens, UniProt P00734;P00734 P00734:328-363,P00734:364-622); test: FP; 140 mM NaCl, 20 mM Tris acetate, 1 mM CaCl2, 5 mM KCl, 1 mM MgCl2, pH 7.4, room temperature; delta mP +80
serum albumin (HSA) [3] = target: T1, serum albumin (HSA); test: FP; no detectable binding by fluorescence anisotropy; settings: tags: Sigma; label: fluorescein (C6 linker)
Description: Compound 4 was the control prepared in Example 1, and as such was added to the thrombin dilutions and HSA dilutions at the same respective concentrations of Compounds 1, 2 and 3 above. Similarly, Compound 4 was then subjected to the same conditions as Compounds 1, 2 and 3, and analyzed with an SLM instrument to determine anisotropy values as described in Example 4 below.

alpha-thrombin [4] = target: T2, alpha-thrombin; test: FP; no detectable binding; anisotropy 0.0403 free, 0.0445 with thrombin
alpha-thrombin [5] = target: T2, alpha-thrombin; test: FP; 140 mM NaCl, 20 mM Tris acetate, 1 mM CaCl2, 5 mM KCl, 1 mM MgCl2, pH 7.4, room temperature; delta mP +25
serum albumin (HSA) [6] = target: T1, serum albumin (HSA); test: FP; HSA up to 150 nM; settings: tags: Sigma; label: 5'-fluorescein (6-FAM, C6 linker)
Description: as §1

neutrophil elastase = neutrophil elastase (Homo sapiens, UniProt P08246 P08246:30-267); test: FP; 150 mM NaCl, 2 mM MgCl2, 6 mM KCl, 10 mM Tris, pH 7.0, room temperature; delta mP +30; settings: tags: Athens Research Technology; label: 5'-fluorescein (6-FAM, C6 linker)
Description: An elastase solution was prepared from human neutrophil elastase (Athens Research Technology) at 180 nM for the highest concentration in a buffer of 150 mM NaCl, 2 mM MgCl_2, 6 mM KCl, 10 mM TRIS, pH 7.0. Serial dilutions of this solution were then prepared to give a range of concentrations from 0.027 nM to 180 nM.
as §1

alpha-thrombin [7] = target: T2, alpha-thrombin; test: FP; 140 mM NaCl, 20 mM Tris acetate, 1 mM CaCl2, 5 mM KCl, 1 mM MgCl2, pH 7.4, room temperature; delta mP +55
serum albumin (HSA) [8] = target: T1, serum albumin (HSA); test: FP; HSA up to 1080 nM; settings: tags: Sigma; label: fluorescein tethered at the T7 phosphorothioate via iodoacetamide
Description: A thrombin solution was prepared at 600 nM for the highest concentration in the same buffer as was used for Compound 1 in Example 3. Serial dilutions of this solution were then prepared to give a range of concentrations from 0.045 nM to 600 nM.
Compound 6 was then added to a sample of each dilution of thrombin solution and HSA solution to a concentration of 2.3 nM, then vortexed and let stand at room temperature for 15 minutes before fluorescence measurement was taken as described in Example 3. The data from the measurements is presented below as the average of three readings at ambient temperature.

alpha-thrombin [9] = target: T2, alpha-thrombin; test: FP; 140 mM NaCl, 20 mM Tris acetate, 1 mM CaCl2, 5 mM KCl, 1 mM MgCl2, pH 7.4, room temperature; delta mP +52
serum albumin (HSA) [10] = target: T1, serum albumin (HSA); test: FP; HSA up to 247 nM; anisotropy 0.04429 free, 0.04433 with HSA; settings: tags: Sigma; label: 5'-fluorescein (6-FAM, C6 linker)

neutrophil elastase, sequence (P08246 30-267, one chain of several): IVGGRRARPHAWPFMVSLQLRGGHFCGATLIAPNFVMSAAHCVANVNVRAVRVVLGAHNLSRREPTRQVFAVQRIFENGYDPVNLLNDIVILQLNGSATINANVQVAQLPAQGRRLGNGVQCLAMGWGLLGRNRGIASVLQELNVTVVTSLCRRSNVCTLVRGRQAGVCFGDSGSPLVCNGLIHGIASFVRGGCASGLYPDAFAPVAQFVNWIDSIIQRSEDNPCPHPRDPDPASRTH

**Q.** Which results are given for GGTTGGTGTGGTTGG (ssDNA) [Compound 3]?
**A.** binding result (serum albumin (HSA) [1]): no binding; Kd (alpha-thrombin [2]): 5.7 nM

**Q.** Does GGTGGTGGTTGTGGT (ssDNA) [Compound 4 (scrambled control)] bind (serum albumin (HSA) [3])?
**A.** no binding

**Q.** Does GGTGGTGGTTGTGGT (ssDNA) [Compound 4 (scrambled control)] bind (alpha-thrombin [4])?
**A.** no binding

**Q.** Which Kd (alpha-thrombin [5]) does the source give for CAGTCCGTGGTAGGGCAGGTTGGGGTGACTTCGTGGAA (ssDNA) [Compound 2] here?
**A.** 1.5 nM

**Q.** Does CAGTCCGTGGTAGGGCAGGTTGGGGTGACTTCGTGGAA (ssDNA) [Compound 2] bind (serum albumin (HSA) [6])?
**A.** no binding

**Q.** With TAGCGATACTGCGTGGGTTGGGGCGGGTAGGGCCAGCAGTCTCGT (ssDNA) [Compound 5] as the binder, how does the Kd (neutrophil elastase) read?
**A.** 2.6 nM

**Q.** For GGTTGGTGTGGTTGG (ssDNA, PS between G6 and T7) [Compound 6], which Kd (alpha-thrombin [7]) is on record?
**A.** 11.1 nM

**Q.** Does GGTTGGTGTGGTTGG (ssDNA, PS between G6 and T7) [Compound 6] bind (serum albumin (HSA) [8])?
**A.** no binding

**Q.** Which Kd (alpha-thrombin [9]) does the source give for GGTTGGTGTGGTTGG (ssDNA) [Compound 1] here?
**A.** 2 nM

**Q.** Does GGTTGGTGTGGTTGG (ssDNA) [Compound 1] bind (serum albumin (HSA) [10])?
**A.** no binding
